Laboratory results taken from patent US7132252B2, “Methods for detecting the interaction of compounds with cytochrome P450 using optical molecular sensors” (Invitrogen Corporation, priority 1998, dated 2006).
Where two headings read alike, the source gives them in different places. Values belong to the molecule of their own block, whether it stands above or below them.

Experiments:
[1] = molecular target: T1, CYP3A4 (Homo sapiens, UniProt P08684)
[2] = molecular target: T1, CYP3A4; experiment: Kinetic properties of fluorescein-based fluorogenic substrates with CYP 3A4; format: biochemical; conditions: for K1/2max: concentration at 1/2 maximal velocity for sigmoidal kinetics; for vmax: for sigmoidal kinetics; for v (1.25 uM): turnover rate at 1.25 uM substrate; for v (1.25 uM) / v (10 uM): 100 mM K+ phosphate, pH 8.0; for v (10 uM): turnover rate at 10 uM substrate
Protocol: (§1) Dibenzylfluorescein (DBF) was purchased form Gentest, Woburn, Mass. […] DBF, BOMF and DBOMF were diluted from a stock solution of 2 mM in acetonitrile to a 4×concentration of 80 μM in 100 mM K+ phosphate buffer. Seven 1:2 dilutions were made of each substrate of which 25 μl was added to the appropriate wells. […] The cytochrome P450 isozyme CYP3A4 was diluted to give a 0.5 pmol enzyme per well and added in a volume of 10 μl/well in K+ phosphate, pH 8.0. Enzymatic conversion of the substrate to products was allowed to proceed for 1 hour with fluorescence reads taken every four minutes on a fluorescence microtiter plate reader. The solution was illuminated using an 485/20 nm excitation filter and fluorescence emission was detected through a 530/25 nm the emission filter.

[3] = molecular target: T2, CYP 2C8 (Homo sapiens, UniProt P10632); experiment: Kinetic properties of fluorescein-based fluorogenic substrates with CYP 2C8; format: biochemical; conditions: for v (1.25 uM): turnover rate at 1.25 uM substrate; for v (1.25 uM) / v (10 uM): 100 mM K+ phosphate buffer, pH 7.5; for v (10 uM): turnover rate at 10 uM substrate
T2 sequence (P10632 1-490): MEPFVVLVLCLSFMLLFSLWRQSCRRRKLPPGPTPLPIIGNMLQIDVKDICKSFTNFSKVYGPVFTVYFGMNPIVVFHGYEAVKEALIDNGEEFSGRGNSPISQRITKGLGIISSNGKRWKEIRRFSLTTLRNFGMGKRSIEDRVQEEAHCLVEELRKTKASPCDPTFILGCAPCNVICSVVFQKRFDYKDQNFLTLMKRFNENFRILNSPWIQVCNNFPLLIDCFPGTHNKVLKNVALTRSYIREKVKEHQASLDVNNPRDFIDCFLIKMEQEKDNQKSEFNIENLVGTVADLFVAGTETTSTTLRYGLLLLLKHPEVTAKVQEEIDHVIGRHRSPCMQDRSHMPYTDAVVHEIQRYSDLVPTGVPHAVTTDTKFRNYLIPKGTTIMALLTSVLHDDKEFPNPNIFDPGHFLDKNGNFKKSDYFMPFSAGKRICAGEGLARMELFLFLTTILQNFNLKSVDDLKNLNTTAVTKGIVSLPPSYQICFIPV
Protocol: as §1
In deviation from the protocol described in Example 32, the phosphate-based buffer (100 mM K+ phosphate, pH 8.0) was replaced throughout the procedure by 100 mM K+ phosphate buffer, pH 7.5. […] Specifically, the substrate dibenzylfluorescein (DBF) (purchased form Gentest, Woburn, Mass.) and the sensor of the present invention DBOMF were tested for activity with CYP 2C8.

[4] = molecular target: T1, CYP3A4; experiment: in vitro; conditions: pH 8, % inhibition, 10 μM drug; for inhibition at 20 min, 10 µM: Condition A, 20 min pre-incubation without NADP+ (no enzyme turnover), relative to 10 μM clotrimazole control; for inhibition at 40 min, 10 µM: Condition B, 40 min pre-incubation with NADP+ (enzyme turnover), relative to 10 μM ellipticine control
[5] = substrate: CC(C)Oc1ccc2cc(C#N)c(=O)oc2c1; experiment: Kinetic properties of fluorogenic substrates with CYP 2D6; format: biochemical, human; conditions: other: — = too low to quantify
From the text: (§2) (respectively, MFC and MR).

[6] = substrate: COc1ccc(COc2ccc3c(C(F)(F)F)cc(=O)oc3c2)cc1; experiment: as above; format: biochemical, human; conditions: other: — = too low to quantify
From the text: as §2

[7] = substrate: COCOc1ccc2nc3ccc(=O)cc-3oc2c1; experiment: as above; format: biochemical, human; conditions: other: — = too low to quantify
From the text: as §2

[8] = substrate: COc1ccc(COc2ccc3nc4ccc(=O)cc-4oc3c2)cc1; experiment: as above; format: biochemical, human; conditions: other: — = too low to quantify
From the text: as §2

[9] = substrate: CCOc1ccc2cc(C#N)c(=O)oc2c1; experiment: Kinetic properties of fluorogenic substrates with CYP 1A2; format: biochemical, human
[10] = substrate: CCOCOc1ccc2cc(C#N)c(=O)oc2c1; experiment: as above; format: biochemical, human
[11] = substrate: CCCCCCCCOCOc1ccc2nc3ccc(=O)cc-3oc2c1; experiment: Kinetic properties of fluorogenic substrates with CYP 2C19; format: biochemical, human; conditions: other: — = too low to quantify
[12] = substrate: CCOc1ccc2cc(C#N)c(=O)oc2c1; experiment: as above; format: biochemical, human; conditions: other: — = too low to quantify
[13] = substrate: CC(C)Oc1ccc2cc(C#N)c(=O)oc2c1; experiment: as above; format: biochemical, human; conditions: other: — = too low to quantify
[14] = substrate: CCN(CC)Cc1cc(=O)oc2cc(OC)ccc12; experiment: as above; format: biochemical, human; conditions: other: — = too low to quantify
[15] = substrate: N#Cc1cc2ccc(OCOCc3ccccc3)cc2oc1=O; experiment: as above; format: biochemical, human; conditions: other: — = too low to quantify
[16] = substrate: CCOCOc1ccc2cc(C#N)c(=O)oc2c1; experiment: as above; format: biochemical, human; conditions: other: — = too low to quantify
[17] = substrate: COCOc1ccc2cc(C#N)c(=O)oc2c1; experiment: as above; format: biochemical, human; conditions: other: — = too low to quantify
[18] = substrate: CCCCCCCCOCOc1ccc2cc(C#N)c(=O)oc2c1; experiment: as above; format: biochemical, human; conditions: other: — = too low to quantify
[19] = substrate: N#Cc1cc2ccc(OCc3ccccc3)cc2oc1=O; experiment: as above; format: biochemical, human; conditions: other: — = too low to quantify

T1 sequence (P08684 whole entry): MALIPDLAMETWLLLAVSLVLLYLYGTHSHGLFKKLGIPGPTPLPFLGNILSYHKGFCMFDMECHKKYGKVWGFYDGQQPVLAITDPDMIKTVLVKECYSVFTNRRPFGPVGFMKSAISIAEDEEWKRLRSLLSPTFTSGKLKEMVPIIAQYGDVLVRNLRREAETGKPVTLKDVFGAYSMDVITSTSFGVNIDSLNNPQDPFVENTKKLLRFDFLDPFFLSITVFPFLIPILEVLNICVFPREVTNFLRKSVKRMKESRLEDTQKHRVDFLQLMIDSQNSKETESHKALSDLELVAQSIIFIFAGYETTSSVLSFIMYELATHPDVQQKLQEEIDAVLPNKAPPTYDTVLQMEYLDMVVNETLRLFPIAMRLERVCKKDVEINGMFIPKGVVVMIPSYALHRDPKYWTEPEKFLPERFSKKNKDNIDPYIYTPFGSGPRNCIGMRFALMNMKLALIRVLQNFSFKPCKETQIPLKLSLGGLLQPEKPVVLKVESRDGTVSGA

Molecule: CCCCc1oc2ccccc2c1C(=O)c1cc(I)c(OCCN(CC)CC)c(I)c1 [Amiodarone]
metabolism-dependent inhibitory activity against the CYP3A4 isozyme [1]: at least partial metabolism-dependent inhibitory activity

type of kinetics [2]: sigmoidal
K1/2max [2]: 0.80 µM
vmax [2]: 4.30 min⁻¹
v (1.25 uM) [2]: 3.27 min⁻¹
v (10 uM) [2]: 4.40 min⁻¹
type of kinetics [3]: MichaelisMenten
v (1.25 uM) [3]: 0.16 min⁻¹
v (10 uM) [3]: 0.37 min⁻¹
Molecule: O=C(OCc1ccccc1)c1ccccc1-c1c2ccc(=O)cc-2oc2cc(OCc3ccccc3)ccc12 [DBF, Dibenzylfluorescein, reference compound]

type of kinetics [2]: sigmoidal
K1/2max [2]: 1.50 µM
vmax [2]: 16.00 min⁻¹
v (1.25 uM) [2]: 6.00 min⁻¹
v (10 uM) [2]: 15.50 min⁻¹
type of kinetics [3]: MichaelisMenten
v (1.25 uM) [3]: 0.55 min⁻¹
v (10 uM) [3]: 1.54 min⁻¹
Molecule: O=C(OCOCc1ccccc1)c1ccccc1-c1c2ccc(=O)cc-2oc2cc(OCOCc3ccccc3)ccc12 [DBOMF, Dibenzyloxymethylfluorescein]

Molecule: Cc1c2ccncc2c(C)c2c1[nH]c1ccccc12 [Ellipticine]
metabolism-dependent inhibitory activity against the CYP3A4 isozyme ([1]; indicated by data for DBOMF): at least partial metabolism-dependent inhibitory activity
inhibition at 20 min, 10 µM ([4]; substrate BOMCC): 92%
inhibition at 40 min, 10 µM ([4]; substrate BOMCC): 100%
inhibition at 20 min, 10 µM ([4]; substrate BOMR): 97%
inhibition at 40 min, 10 µM ([4]; substrate BOMR): 100%
inhibition at 20 min, 10 µM ([4]; substrate DBOMF): 40%
inhibition at 40 min, 10 µM ([4]; substrate DBOMF): 100%

Molecule: COc1ccc(Cc2nccc3cc(OC)c(OC)cc23)cc1OC [Papaverine]
metabolism-dependent inhibitory activity against the CYP3A4 isozyme ([1]; indicated by data for DBOMF): at least partial metabolism-dependent inhibitory activity
inhibition at 20 min, 10 µM ([4]; substrate BOMCC): 34%
inhibition at 40 min, 10 µM ([4]; substrate BOMCC): 99%
inhibition at 20 min, 10 µM ([4]; substrate BOMR): 69%
inhibition at 40 min, 10 µM ([4]; substrate BOMR): 92%
inhibition at 20 min, 10 µM ([4]; substrate DBOMF): 48%
inhibition at 40 min, 10 µM ([4]; substrate DBOMF): 90%

B1: CYP 2D6 (Homo sapiens) (protein)
chain: MGLEALVPLAVIVAIFLLLVDLMHRRQRWAARYPPGPLPLPGLGNLLHVDFQNTPYCFDQLRRRFGDVFSLQLAWTPVVVLNGLAAVREALVTHGEDTADRPPVPITQILGFGPRSQGVFLARYGPAWREQRRFSVSTLRNLGLGKKSLEQWVTEEAACLCAAFANHSGRPFRPNGLLDKAVSNVIASLTCGRRFEYDDPRFLRLLDLAQEGLKEESGFLREVLNAVPVLLHIPALAGKVLRFQKAFLTQLDELLTEHRMTWDPAQPPRDLTEAFLAEMEKAKGNPESSFNDENLRIVVADLFSAGMVTTSTTLAWGLLLMILHPDVQRRVQQEIDDVIGQVRRPEMGDQAHMPYTTAVIHEVQRFGDIVPLGVTHMTSRDIEVQGFRIPKGTTLITNLSSVLKDEAVWEKPFRFHPEHFLDAQGHFVKPEAFLPFSAGRRACLGEPLARMELFLFFTSLLQHFSFSVPTGQPRPSHHGVFAFLVSPSPYELCAVPR
Km [5]: 18 µM
kcat [5]: 0.0017 s⁻¹
kcat/Km [5]: 93 M⁻¹ s⁻¹
Km [6]: 5.0 µM
kcat [6]: 0.01 s⁻¹
kcat/Km [6]: 2067 M⁻¹ s⁻¹
Km [7]: 8 µM
kcat [7]: 0.00567 s⁻¹
kcat/Km [7]: 708 M⁻¹ s⁻¹
Km [8]: 3.1 µM
kcat [8]: 0.000817 s⁻¹
kcat/Km [8]: 263 M⁻¹ s⁻¹

B2: CYP 1A2 (Homo sapiens) (protein)
chain: MALSQSVPFSATELLLASAIFCLVFWVLKGLRPRVPKGLKSPPEPWGWPLLGHVLTLGKNPHLALSRMSQRYGDVLQIRIGSTPVLVLSRLDTIRQALVRQGDDFKGRPDLYTSTLITDGQSLTFSTDSGPVWAARRRLAQNALNTFSIASDPASSSSCYLEEHVSKEAKALISRLQELMAGPGHFDPYNQVVVSVANVIGAMCFGQHFPESSDEMLSLVKNTHEFVETASSGNPLDFFPILRYLPNPALQRFKAFNQRFLWFLQKTVQEHYQDFDKNSVRDITGALFKHSKKGPRASGNLIPQEKIVNLVNDIFGAGFDTVTTAISWSLMYLVTKPEIQRKIQKELDTVIGRERRPRLSDRPQLPYLEAFILETFRHSSFLPFTIPHSTTRDTTLNGFYIPKKCCVFVNQWQVNHDPELWEDPSEFRPERFLTADGTAINKPLSEKMMLFGMGKRRCIGEVLAKWEIFLFLAILLQQLEFSVPPGVKVDLTPIYGLTMKHARCEHVQARLRFSIN
Km [9]: 26.0 µM
kcat [9]: 0.733 s⁻¹
kcat/Km [9]: 28200 M⁻¹ s⁻¹
Km [10]: 11.0 µM
kcat [10]: 0.35 s⁻¹
kcat/Km [10]: 31800 M⁻¹ s⁻¹

B3: CYP 2C19 (Homo sapiens) (protein)
chain: MDPFVVLVLCLSCLLLLSIWRQSSGRGKLPPGPTPLPVIGNILQIDIKDVSKSLTNLSKIYGPVFTLYFGLERMVVLHGYEVVKEALIDLGEEFSGRGHFPLAERANRGFGIVFSNGKRWKEIRRFSLMTLRNFGMGKRSIEDRVQEEARCLVEELRKTKASPCDPTFILGCAPCNVICSIIFQKRFDYKDQQFLNLMEKLNENIRIVSTPWIQICNNFPTIIDYFPGTHNKLLKNLAFMESDILEKVKEHQESMDINNPRDFIDCFLIKMEKEKQNQQSEFTIENLVITAADLLGAGTETTSTTLRYALLLLLKHPEVTAKVQEEIERVIGRNRSPCMQDRGHMPYTDAVVHEVQRYIDLIPTSLPHAVTCDVKFRNYLIPKGTTILTSLTSVLHDNKEFPNPEMFDPRHFLDEGGNFKKSNYFMPFSAGKRICVGEGLARMELFLFLTFILQNFNLKSLIDPKDLDTTPVVNGFASVPPFYQLCFIPV
Km [11]: 0.7 µM
kcat [11]: 0.00283 s⁻¹
kcat/Km [11]: 4048 M⁻¹ s⁻¹
Km [12]: 41.0 µM
kcat [12]: 0.0283 s⁻¹
kcat/Km [12]: 671 M⁻¹ s⁻¹
Km [13]: 57.2 µM
kcat [13]: 0.0325 s⁻¹
kcat/Km [13]: 568 M⁻¹ s⁻¹
Km [14]: 8.5 µM
kcat [14]: 0.0067 s⁻¹
kcat/Km [14]: 784 M⁻¹ s⁻¹
Km [15]: 14.0 µM
kcat [15]: 0.0317 s⁻¹
kcat/Km [15]: 2260 M⁻¹ s⁻¹
Km [16]: 16.6 µM
kcat [16]: 0.095 s⁻¹
kcat/Km [16]: 5720 M⁻¹ s⁻¹
Km [17]: 3.2 µM
kcat [17]: 0.00833 s⁻¹
kcat/Km [17]: 2060 M⁻¹ s⁻¹
Km [18]: 6.9 µM
kcat [18]: 0.0283 s⁻¹
kcat/Km [18]: 4106 M⁻¹ s⁻¹
Km [19]: 6.4 µM
kcat [19]: 0.00167 s⁻¹
kcat/Km [19]: 234 M⁻¹ s⁻¹
